Earlier results as cited in patent publication US20070212358A1, “Compositions and Methods for Effecting Controlled Posterior Vitreous Detachment” (priority 2006, published 2007).

Test system: vitreoretinal interface
Conditions: rabbit eyes

B1: plasmin (protein, UniProt P00747 20-580; P00747 581-810, looked up)
Plasmin heavy chain A: EPLDDYVNTQGASLFSVTKKQLGAGSIEECAAKCEEDEEFTCRAFQYHSKEQQCVIMAENRKSSIIIRMRDVVLFEKKVYLSECKTGNGKNYRGTMSKTKNGITCQKWSSTSPHRPRFSPATHPSEGLEENYCRNPDNDPQGPWCYTTDPEKRYDYCDILECEEECMHCSGENYDGKISKTMSGLECQAWDSQSPHAHGYIPSKFPNKNLKKNYCRNPDRELRPWCFTTDPNKRWELCDIPRCTTPPPSSGPTYQCLKGTGENYRGNVAVTVSGHTCQHWSAQTPHTHNRTPENFPCKNLDENYCRNPDGKRAPWCHTTNSQVRWEYCKIPSCDSSPVSTEQLAPTAPPELTPVVQDCYHGDGQSYRGTSSTTTTGKKCQSWSSMTPHRHQKTPENYPNAGLTMNYCRNPDADKGPWCFTTDPSVRWEYCNLKKCSGTEASVVAPPPVVLLPDVETPSEEDCMFGNGKGYRGKRATTVTGTPCQDWAAQEPHRHSIFTPETNPRAGLEKNYCRNPDGDVGGPWCYTTNPRKLYDYCDVPQCAAPSFDCGKPQVEPKKCPGR
Plasmin light chain B: VVGGCVAHPHSWPWQVSLRTRFGMHFCGGTLISPEWVLTAAHCLEKSPRPSSYKVILGAHQEVNLEPHVQEIEVSRLFLEPTRKDIALLKLSSPAVITDKVIPACLPSPNYVVADRTECFITGWGETQGTFGAGLLKEAQLPVIENKVCNRYEFLNGRVQSTELCAGHLAGGTDSCQGDSGGPLVCFEKDKYILQGVTSWGLGCARPNKPGVYVRVSRFVTWIEGVMRNN
modifications: Plasmin
Question: Which “posterior vitreous detachment (PVD) in eyes treated with plasmin” value (plasmin treatment) does the source give for B1 here?
Answer: some areas of PVD

Question: What about the “detachment of the vitreous after plasmin treatment and vitrectomy” value (plasmin treatment with subsequent vitrectomy) of the same molecule?
Answer: substantially detached
